Experimental data as given in the RNAGym collection of RNA variant scans (doi:10.1073/pnas.2313332121).

B1: TPR t1 (parent)
chain: GACCAAUCUGCCCUCAGAGCUCGAGAACAUCUUCGGAUGCAGAGGAGGCAGGCUUCGGUGGCGCGAUAGCGCCAACGUCCUCAACCUCCAAUGCAUCCCACCACAUGAUGAUGCCUGAAGAGCCUUGGUUUUUUG

Variants of: B1
Experiment: polymerase ribozyme fitness, log enrichment relative to wild type (log ratio); higher = more active; in vitro selection for triplet polymerase activity
Outline: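 A single round of triplicate in vitro selection, including frozen incubation at −7 °C, was applied to PCR-built, transcribed mutant libraries of each subunit of a heterodimeric triplet polymerase ribozyme. Illumina sequencing of input and output libraries retained genotypes with ≥10 input reads and ≥1 read per output. Fitness is the base-2 logarithm of genotype enrichment divided by wild-type enrichment, from inverse-variance-weighted replicate averages.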

Row | Variant | polymerase ribozyme fitness (log ratio)
1 | GACCAAUCUCCCCUCAGAGCUCGAGAACAUCUUCGGAUGCAGGCGAGGUAGCCUUGGGUGGCGCGAUAGCGCCAACAUCCUCAACCUCCAAUGCAUCCCACCACAUGAUGAUGCCUGAAGAGCCUUGGUUUUUUG | -6.25
2 | GACCAAGCUGCCCUCAGAGCUCGAGAACAUCUUCGGAUGCAGAGGAGGCAGGCUUCGGUGGCGCGAUAGCGCCAACGUCCUCAACCUCCAAUGCAUCCCACCACAUGAUGAUGUCUGAAGAGCCUUAGUUUUUUG | -1.17
3 | GACCAAUCUGCCCUCAGAGCGCGAGAACAUCUUCGGAUGCAGAGGAGGCAGGCUUCGGUGGCGCGAUAGCGCCAACGUCCUCAACCUCCAAUUCAUCCCACCACAUGAUGGGGCCUGAAGAGCCUUGGUUUUUUG | -2.45
4 | GACCAAUCUGCCCUCAGAGCUCGAGAACAUCUUCGGAUGCAGAGGAGGCAGGCUUCGGUGGCGCGCUAGCGCCAACGUCCUCAAUCUACAAUGCAUCCCACCACAUGAUGAUGCCUGAAGAGCCUUGGUUUUUUG | -1.61
5 | GACCAAUCUGCCCUCAGAGCUCGAGAACAUCUUCGGAUGCAGAGGAGGCAGGCUUCGGUGGCGCGAUAGCGCCAGCGUCCUCAACCUACAAUGCAUCCCACCAAAUGAUGAAGCCUGAAGAGCCUUGGUUUUUUG | -1.1
6 | GACCAAUCUGCCCUCAGAGCUCAAGAACAUCUUCGGAUGCAGAGGAGUCAGGCUUCGGUGGCGCGAUAGCGCCAACGUCCUCAACCUCCAAUGCAUCCCACCACAUGAUGAUGCCUGAAGAGCCUUGGUUUUUUG | -5.02
7 | GACCAAUCUGCCCUCAGAGCUCGAGAACAUCUUCGGAUGCAGAGGAGGCAGGCUUCGGUGUCGCGAUAUCGCCAACGUCCUCAACCUCCAAUGCAUCCCACCACAUGAUGAUGCCUGAAAAGCCUUGGUUUUUUG | 0.591
8 | GACCAAUCUGCCCUCAGAGCUCGAGAACAUCUUCGGAUGCAGAGGAGGCAGGCUUCGGUGGAGCGAUAGCGCCAUCGUCCUCAACCUCCAAUGCAUCCCACCACAUGAUGCUGCCUGAAGAGCCUUGGUUUUUUG | -1.81
9 | GACCAAUCUGCCCUCAGAGCUCGAGAACAUCUUCGGAUGCAGAGGAGGCAGGAUUCGGUGGCGCGAUAACGCCAACGUCCUCAACCUCCAAUGCAUCCCACCACAUGAUGAUGCCUGAAGAGCAUUGGUUUUUUG | -0.263
10 | GACCAAUGUGCCUUCUGAGCUCGAGAACAUCUUCGGAUGCAGAGGAGGCAGGCUUCGGUGGCGCGAUAGCACCAACGUCCUCAACCUCCAAUGCAUCCCACCACAUGAUGAUGCCUGAAGAGCCUUGGUUUUUUG | -0.033
11 | GACCAAUCUGCCCUCAGAGCUCGAGAACAUCUUCGGAUGCAAAGGAGGCAGGCUUCGGUGGCGCGAUAGCGCCAACGUCCUCAACCUGCAAUGCAUCCCACCACAUGAUGAUGCCUGAAGAGCCUUGGUUUCUUG | -2.38
12 | GACCAAUCUGGCCUCAGAGCUCGAGAACAUCUUCGGAUGCAGAGGAGGCAGGCUUUGGUGGCGCGAUAGCGCCUACGUCCUCAGCCUCCAAUGCAUCCCACCACAUGAUGAUGCCUGAAGAGCCUUGGUUUUUUU | -1.8
13 | GACCAAUCUGCCCUCAGAGCUCGAGAACAUCUUCGGAUGCAGAGGAGGCAGGCUUCGGUGGGGCGAUAGCGCCAACGUCCUCAACCUCCAAUACAUCCCACCACAUGAUGAUGCCUGAAGAGCCUUGGUUUUUUG | -1.76
14 | GACCAAUAUGCCCUCAGAGCUCGAGAACAUCUUCGGAUGCAGAGGAGGCAGGCUUCGGUGGCGCGAUAGCGCCAACGUCCUCAACCUCCAGUGCAUCUCACCACAUGAUGAUGCCUGAAGAGCCUUGGUUUUUUG | -1.37
15 | GACCAAUUUGCCAUCAGAGCUCGAGAACAUCUUCGGAUGCAGAGGAGGCAGGCUUCGGUGGCGCGAUAGCUCCAACGUUCUCAACCUCCAAUGCAUCCCACCACAUGAUGAUGCCUGAAGAGCCUUGGUUUUUUG | -1.19
16 | GACCAAUCUGCCCUCAGAGCUCGAGAACAUCUUAGGAUGCAGAGGAGGCAGGCUUCGGUGUCGCGAUAGCGCCAACGUCCUCAACCUCCAAUGCAUCCCACCACAUGAUGAGGCCUGAAGAGACUUGGUUUUUUG | -4.54
17 | GACCAAUCUGCCUUCAGAACUCGAGAACAUCUUCGGAUGCUGAUGAGGCAGGCUUCGGUGGCGCGAUAUCGCCAACGUCCUCAACCUCCAAUGCAUCCCACCACAUGAUGAUGCCUGAAGAGCCUUGGUUUUUUG | -2.81
18 | GACCAAUCUGCCCUCAGAGCUCGAGAACAUCUUCGUAUGCAGAGGAGGCAGGCUUCGGUGGCGCGAUAGCGUCAACGUCCUCAACCUCCAAUGCAGCCCACCACAUGAUGAUGCCUGAACAGCCUUGGUUUUUUG | -0.581
19 | GACCAAUCUGCCCUCAGAGCUCGAGAACAUCUUCGGAUGCAGAGGAGGCAGGAUUCGGUAGCGCGAUAGCGCCAACGUCCUCAACCUCCAAUGCAUCCCUCCACAUGAUGAUGCCUGAACAGGCUUGGUUUUUUG | -1.07
20 | GACCAAUCUGCCCUCACAGCUCGAGAACAUCUUCGGAUGCAGAGGAGGCAGGCUUCGGUGGCGCGAUAGCGCCAACGUCCUCAACCUUCAAUGCAUCCCACCACAUGAUGAUGCCUGAAGAGCCUUGGUUUUUUG | -4.49
21 | GACCAAUCUGCCCUCAGAGCUCGAGAACAUCUUCGGAUGCAGAGGUGACAGGCUUCGGUGGCGCGAUAGCGCCAACGUCCUCAACCUCCAAUGCAUCCCACCACAUGAUGAUGCCUGAAGAGCCUUGAUUUUUUG | -4.23
